US20250195556A1, “COMPOSITIONS, KITS, AND METHODS TO INDUCE ACQUIRED CYTORESISTANCE USING STRESS PROTEIN INDUCERS” (FRED HUTCHINSON CANCER RESEARCH CENTER, priority 2014, published 2025)

Tests used:
HO-1 [1] = assay: Renal cortical HO-1 mRNA and protein after FeS, SnPP or B12; assay type: in vivo, mice; conditions: for HO-1 protein increases (FIG. 21): within 4 hrs and persists for 18 hrs of IV injection
Excerpt: (§1) Methods. Male CD-1 mice (25-40 grams) Charles River, Wilmington, MA) were used for all experiments. They were housed under standard vivarium conditions with free food and water access. All experiments were approved by the Fred Hutchinson Cancer Research Center IACUC in accordance with NIH guidelines.
Effects of FeS, SnPP, and B12 on renal cortical induction of heme oxygenase 1 (HO-1). The following experiments assessed the effects of FeS, SnPP, and B12 on the possible induction of the cytoprotective protein HO-1. To this end, mice were injected with each of these agents, as noted above. Either 4 or 18 hrs later, they were anesthetized and the kidneys were removed through a midline abdominal incision. The renal cortices were dissected on ice and then extracted for protein and mRNA. The samples were then assayed for HO-1 protein by ELISA, and HO-1 mRNA by RT-PCR, factored by GAPDH levels. Five normal mice provided control values.

Male CD-1 mice [2] = assay: Maleate model of AKI (FeS, SnPP, FeS+SnPP); assay type: in vivo; conditions: 1 mg FeS or 1 μmole SnPP IV alone 18 hrs before maleate
Excerpt: as §1
Effects of Fe sucrose (FeS)/tin protoporphyrin (SnPP) on AKI severity. Maleate model of AKI. When injected into rodents, maleate undergoes relatively selective proximal tubule cell uptake via organic anion transporters. Once intracellular accumulation occurs, maleate is a preferred substrate for succinyl-CoA: 3-oxoacid CoA transferase. […] Ample levels of CoA are essential for fatty acid “activation”, allowing for their subsequent metabolism through the Krebs cycle, yielding ATP. In the absence of this process, proximal tubule ATP depletion and cell injury result. Additionally, maleate conjugates the sulfhydryl group of glutathione (GSH), culminating in GSH depletion and potential oxidant tubular stress.
The following experiment tested whether FeS, SnPP or combined FeS+SnPP can mitigate this form of acute kidney injury (AKI). […] The severity of kidney injury was assessed by determining plasma blood urea nitrogen (BUN) and plasma creatinine (PCr) concentrations.

HK-2 cells = assay: Myoglobin toxicity in HK-2 cells, MTT assay; assay type: cell-based; conditions: equimolar Na nitrite, 10 mg/ml, 18 hr
Protocol: Example 3. […] HK-2 cells (a proximal tubule cell line derived from normal human kidney) were incubated in keratinocyte serum free medium either under normal (control) conditions or in the presence of 10 mg/mL horse skeletal muscle myoglobin or nitrited myoglobin (produced by equimolar Na nitrite addition to 10 mg/ml myoglobin). After 18 hr incubations, the severity of cell injury (% cell death) was assessed by MTT assay. Myoglobin induced 40% cell death (40% decrease in MTT cell uptake), compared to control incubated cells. Nitrite binding to myoglobin reduced cell death by 75%. Thus, nitrite binding is able to reduce myoglobin's cytotoxic effects.

[3] = Serum creatinine after 2 hr subcutaneous infusion of nitrited myoglobin + SnPP; assay type: in vivo, mice; conditions: 2 hr subcutaneous infusion of 1, 3, 6, 12, or 25 mg/Kg + 1 μmole SnPP; 18 hrs later
Protocol: Mice were subjected to a 2 hr subcutaneous infusion of 1, 3, 6, 12, or 25 mg/Kg of nitrited myoglobin (holding SnPP at a constant dose of 1 μmole). Eighteen hrs later, potential renal injury was assessed by measuring serum creatinine concentrations.
An obvious concern by applying this prophylactic strategy to patients is potential renal and/or extrarenal toxicities. […] Furthermore, it was previously documented in a cell culture system that nitrite addition markedly reduces myoglobin's cytotoxic effects by 75% (unpublished data, 2014). To assess the potential in vivo margin of safety for N-Mgb+SnPP (see Supplemental FIGs.), the maximal amount of N-Mgb that could be given to mice before nephrotoxicity was observed was tested. Up to 25 times the employed N-Mgb dose (with a constant SnPP dose) could be administered (over 2 hours) without induction of nephrotoxicity (normal BUN and creatinine, 18 hours later).

HO-1 [4] = assay: Renal cortical HO-1 mRNA and protein after IV N-Mgb, SnPP or both; assay type: in vivo, mice
Excerpt: (§2) Cytoresistance-inducing reagents. […] (#Mb0360; Sigma) was used as the primary cytoresistance-inducing agent. However, because myoglobin (Mgb) has an inherent nephrotoxic potential (particularly under conditions of volume depletion and aciduria), two approaches were used to mitigate Mgb's potential adverse effects. First, the Mgb was converted into a nitrited form by the addition of equimolar amount of sodium (Na) nitrite. In this regard, nitrite is an ambidentate molecule that directly binds 1:1 to myoglobin Fe either via its oxygen or nitrogen component. Cotton et al. Advanced inorganic chemistry. Hobocken, NJ: Wiley-Interscience, 1999:1355; Silaghi-Dumitrescu et al. Nitric Oxide 2014; 42 C: 32-9. […] Rassaf et al. Circ Res 2014; 114:1601-10; Totzeck et al. Circulation 2012; 126:325-34 [J Clin Invest 1992; 89:989-95]; Totzeck et al. PLOS One 2014; 22: e105951; Hendgen-Cotta et al. Proc Natl Acad Sci USA 2008; 105:10256-61.
(§3) Thirty-two mice were divided into 4 equal groups: (1) control mice; (2) mice treated with 1 mg of N-Mgb injection (as a bolus through the tail vein); (3) mice treated with […] of SnPP (via tail vein); and (4) mice treated with combined N-Mgb 1 SnPP. After either 4 hours (n=16) or 18 hours (n=16), the mice were deeply anesthetized with pentobarbital (50 mg/kg), the abdomen was opened through a midline abdominal incision, and the kidneys were removed. To determine potential effects on extrarenal organs, a liver lobe and the heart were also removed. The tissues were iced and then extracted for protein and RNA (RNeasy Plus Mini; Qiagen, Valencia, California) and subjected to enzyme linked immunosorbent assay (ELISA) and reverse transcriptase polymerase chain reaction (RT-PCR) for HO-1, haptoglobin, and IL-10 protein and messenger RNAs (mRNAs). Zager et al. J Am Soc Nephrol 2014; 25:998-1012; Zager et al. Am J Physiol 2012; 303: F139-48. As an assessment of renal function, control mice and the 18 hour after N-Mgb+SnPP-treated mice had blood urea nitrogen (BUN) and plasma creatinine levels measured. Additionally, transverse 10% formalin fixed kidney sections ([…]) were cut and stained with hematoxylin and eosin (H&E) and periodic acid Schiff (PAS) to further assess potential injury.

haptoglobin [5] = assay: Renal cortical haptoglobin mRNA and protein after IV N-Mgb, SnPP or both; assay type: in vivo, mice
Excerpt: as §2, §3

IL-10 [6] = assay: Renal cortical IL-10 mRNA and protein after IV N-Mgb, SnPP or both; assay type: in vivo, mice; conditions: for Kidney protein: IL-10: control 304
Excerpt: as §2, §3

Male CD-1 mice [7] = assay: Glycerol model of rhabdomyolysis-induced AKI (Example 4); assay type: in vivo; conditions: IV pretreatment 18 hours before glycerol; 18 hours after glycerol
Protocol: Assessments of cytoresistance. Glycerol model of rhabdomyolysis-induced AKI. Twenty mice were divided into 4 equal groups (controls, mice treated with N-Mgb, SnPP, and mice treated with N-Mgb+SnPP tail vein injections) as described previously. 18 hours later, the mice were briefly anesthetized with isoflurane and immediately injected with 9 mL/kg of 50% glycerol, administered in equally divided doses into each hind limb. At 18 hours after glycerol injection, the mice were anesthetized with pentobarbital, the abdomen was opened, a blood sample for BUN and creatinine assessments was obtained from the vena cava, and the kidneys were resected. The control post-glycerol group and the N-Mgb+SnPP-pretreated glycerol group had kidney sections stained with H&E.
Calculations and statistics. All values are given as the mean […] standard error of the mean. Statistical comparisons were made by unpaired Student's t test. If multiple comparisons were made, the Bonferroni correction was applied. The severity of renal histologic injury in the glycerol AKI model was graded on a […] (least to most severe tubular necrosis and cast formation observed). The histologic results were compared by Wilcoxon rank sum test. Statistical significance was taken as a P value of <0.05.

HO-1 [8] = assay: Liver HO-1 mRNA and protein after IV N-Mgb, SnPP or both; assay type: in vivo, mice; conditions: for Liver mRNA: HO-1: control 1.1; for Liver protein: HO-1 protein: control 10.2
Protocol: as §3

haptoglobin [9] = assay: Liver haptoglobin mRNA and protein after IV N-Mgb, SnPP or both; assay type: in vivo, mice; design: Liver protein: Haptoglobin: unit not given beside the values; conditions: for Liver mRNA: Haptoglobin: control 0.5; for Liver protein: Haptoglobin: control 115.3
Protocol: as §3

IL-10 [10] = assay: Liver IL-10 mRNA and protein after IV N-Mgb, SnPP or both; assay type: in vivo, mice; conditions: for Liver mRNA: IL-10: control 0.06; for Liver protein: IL-10: control 314
Protocol: as §3

HO-1 [11] = assay: Cardiac HO-1 mRNA and protein after IV N-Mgb, SnPP or both; assay type: in vivo, mice; conditions: for Cardiac mRNA: HO-1: control 0.07
Protocol: as §3

haptoglobin [12] = assay: Cardiac haptoglobin mRNA and protein after IV N-Mgb, SnPP or both; assay type: in vivo, mice; conditions: for Cardiac mRNA: Haptoglobin: control 0.31; for Cardiac protein: Haptoglobin: control 15.6
Protocol: as §3

IL-10 [13] = assay: Cardiac IL-10 mRNA and protein after IV N-Mgb, SnPP or both; assay type: in vivo, mice; conditions: for Cardiac mRNA: IL-10: control 0.36
Protocol: as §3

## cyanocobalamin [B12]
HO-1 [1]
  HO-1 protein increases (FIG. 21): marked HO-1 protein increases

## iron sucrose [FeS]
Male CD-1 mice [2]
  Severity of maleate-induced renal injury (BUN, PCr): Neither SnPP alone nor FeS alone significantly altered
HO-1 [1]; 18 hr time point
  Renal cortical HO-1 protein levels: remained elevated
HO-1 [1]
  HO-1 protein increases (FIG. 21): marked HO-1 protein increases

B1: N-Mgb: horse skeletal muscle myoglobin converted into a nitrited form by addition of equimolar sodium nitrite (protein, UniProt P68082 2-154, looked up)
Myoglobin: GLSDGEWQQVLNVWGKVEADIAGHGQEVLIRLFTGHPETLEKFDKFKHLKTEAEMKASEDLKKHGTVVLTALGGILKKKGHHEAELKPLAQSHATKHKIPIKYLEFISDAIIHVLHSKHPGDFGADAQGAMTKALELFRNDIAAKYKELGFQG
modifications: nitrited with sodium nitrite
HK-2 cells
  Reduction of myoglobin-induced cell death by nitrite binding: 75%
[3]
  Serum creatinine concentrations: No significant increase
HO-1 [4]; 4 h after Rx, control 0.61
  Kidney mRNA: HO-1: 3.38 ± 0.38
HO-1 [4]; 4 h after Rx, control 13.3
  Kidney HO-1 protein: 36.1 ± 2.9
HO-1 [4]; 18 h after Rx, control 0.61
  Kidney mRNA cortex: HO-1: 0.58 ± 0.18
HO-1 [4]; 18 h after Rx, control 13.3
  Kidney protein: HO-1: 30 ± 6
Haptoglobin [5]; 4 h after Rx, control 0.20
  Kidney mRNA: Haptoglobin: 1.94 ± 0.31
Haptoglobin [5]; 4 h after Rx, control 7.9
  Kidney protein: Haptoglobin: 17.6 ± 1^
Haptoglobin [5]; 18 h after Rx, control 0.20
  Kidney mRNA cortex: Haptoglobin: 0.24 ± 0.04
Haptoglobin [5]; 18 h after Rx, control 10.3
  Kidney protein: Haptoglobin: 183.8 ± 20.4
IL-10 [6]; 4 h after Rx, control 0.56
  Kidney mRNA: IL-10: 1.45 ± 0.6
IL-10 [6]; 4 h after Rx
  Kidney protein: IL-10: 265 ± 54
IL-10 [6]; 18 h after Rx, control 0.56
  Kidney mRNA cortex: IL-10: 0.43 ± 0.10
IL-10 [6]; 18 h after Rx
  Kidney protein: IL-10: 292 ± 54
Male CD-1 mice [7]
  Protection against glycerol-induced AKI (BUN/creatinine levels): modest protection
HO-1 [8]; 4 h after Rx
  Liver mRNA: HO-1: 1.83 ± 0.33
  Liver protein: HO-1 protein: 17 ± 2
HO-1 [8]; 18 h after Rx
  Liver mRNA: HO-1: 0.82 ± 0.07
  Liver protein: HO-1 protein: 14.9 ± 0.3
Haptoglobin [9]; 4 h after Rx
  Liver mRNA: Haptoglobin: 0.98 ± 0.1
  Liver protein: Haptoglobin: 359.5 ± 39.6
Haptoglobin [9]; 18 h after Rx
  Liver mRNA: Haptoglobin: 0.91 ± 0.07
  Liver protein: Haptoglobin: 358.8 ± 32.8
IL-10 [10]; 4 h after Rx
  Liver mRNA: IL-10: 0.67 ± 0.46
  Liver protein: IL-10: 286 ± 32
IL-10 [10]; 18 h after Rx
  Liver mRNA: IL-10: 0.06 ± 0.02
  Liver protein: IL-10: 5988 ± 549
HO-1 [11]; 4 h after Rx
  Cardiac mRNA: HO-1: 0.09 ± 0.01
HO-1 [11]; 4 h after Rx, control 1.50
  Cardiac protein: HO-1: 1.64 ± 0.19
HO-1 [11]; 18 h after Rx
  Cardiac mRNA: HO-1: 0.08 ± 0.01
Haptoglobin [12]; 4 h after Rx
  Cardiac mRNA: Haptoglobin: 0.75 ± 0.10
  Cardiac protein: Haptoglobin: 40.4 ± 8.6
Haptoglobin [12]; 18 h after Rx
  Cardiac mRNA: Haptoglobin: 0.53 ± 0.21
  Cardiac protein: Haptoglobin: 249.6 ± 15.0
IL-10 [13]; 4 h after Rx
  Cardiac mRNA: IL-10: 0.86 ± 0.11
IL-10 [13]; 4 h after Rx, control 8.1
  Cardiac protein: IL-10: 21 ± 12
IL-10 [13]; 18 h after Rx
  Cardiac mRNA: IL-10: 0.67 ± 0.10
IL-10 [13]; 18 h after Rx, control 8
  Cardiac protein: IL-10: 14.5 ± 10^
